T1: YFP-ΔGL1,2 Pins-CFP fusion protein (Pins FRET biosensor) (Drosophila, UniProt Q9VB22 1-658, R486F | R570F)
T1 sequence (looked up): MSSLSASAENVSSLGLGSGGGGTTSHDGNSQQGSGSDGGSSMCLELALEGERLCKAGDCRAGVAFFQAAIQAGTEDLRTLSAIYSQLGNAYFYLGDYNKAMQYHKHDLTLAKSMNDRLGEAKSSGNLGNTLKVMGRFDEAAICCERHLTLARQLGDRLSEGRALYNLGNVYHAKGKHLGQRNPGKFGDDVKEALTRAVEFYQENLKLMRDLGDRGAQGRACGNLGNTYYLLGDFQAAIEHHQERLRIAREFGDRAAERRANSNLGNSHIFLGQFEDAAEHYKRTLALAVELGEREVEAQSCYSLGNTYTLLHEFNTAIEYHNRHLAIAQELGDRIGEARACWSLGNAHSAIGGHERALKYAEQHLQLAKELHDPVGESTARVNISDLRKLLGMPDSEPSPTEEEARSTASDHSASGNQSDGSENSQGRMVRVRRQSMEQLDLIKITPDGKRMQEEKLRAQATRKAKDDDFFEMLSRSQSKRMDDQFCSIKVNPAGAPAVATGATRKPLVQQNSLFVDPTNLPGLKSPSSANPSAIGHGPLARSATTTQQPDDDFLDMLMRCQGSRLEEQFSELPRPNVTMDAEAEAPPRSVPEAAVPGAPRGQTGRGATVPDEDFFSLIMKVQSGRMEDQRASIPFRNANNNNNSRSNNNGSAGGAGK

B1: heterotrimeric G-protein alpha subunit Gαi, GDP-loaded (natural protein, UniProt P20353 1-355, looked up)
chain: MGCAVSTARDKEAIERSKNIDRALRAEGERAASEVKLLLLGAGESGKSTIVKQMKIIHDTGYSQEECEEYRRVVFSNTVQSLMVIIRAMGRLKIEFADPSRTDIARQFFTHASAADEGILLPEIVLLMKKLWADGGVQQSFARSREYQLNDSAGYYLNSLDRIAQPNYIPTQQDVLRTRVKTTGIIETHFSCKQLHFKLFDVGGQRSERKKWIHCFEGVTAIIFCVALSGYDLVLAEDEEMNRMIESLKLFDSICNSKWFVETSIILFLNKKDLFEEKIKRSPLTICFPEYTGTNTFEEAANYIRMKFENLNKRKDQKEIYTHLTCATDTNNVKFVFDAVTDVIIKNNLKQIGLF
B2: ΔGL1,2 Pins (R486F and R570F) (natural protein)
chain: MSSLSASAENVSSLGLGSGGGGTTSHDGNSQQGSGSDGGSSMCLELALEGERLCKAGDCRAGVAFFQAAIQAGTEDLRTLSAIYSQLGNAYFYLGDYNKAMQYHKHDLTLAKSMNDRLGEAKSSGNLGNTLKVMGRFDEAAICCERHLTLARQLGDRLSEGRALYNLGNVYHAKGKHLGQRNPGKFGDDVKEALTRAVEFYQENLKLMRDLGDRGAQGRACGNLGNTYYLLGDFQAAIEHHQERLRIAREFGDRAAERRANSNLGNSHIFLGQFEDAAEHYKRTLALAVELGEREVEAQSCYSLGNTYTLLHEFNTAIEYHNRHLAIAQELGDRIGEARACWSLGNAHSAIGGHERALKYAEQHLQLAKELHDPVGESTARVNISDLRKLLGMPDSEPSPTEEEARSTASDHSASGNQSDGSENSQGRMVRVRRQSMEQLDLIKITPDGKRMQEEKLRAQATRKAKDDDFFEMLSRSQSKRMDDQFCSIKVNPAGAPAVATGATRKPLVQQNSLFVDPTNLPGLKSPSSANPSAIGHGPLARSATTTQQPDDDFLDMLMRCQGSRLEEQFSELPRPNVTMDAEAEAPPRSVPEAAVPGAPRGQTGRGATVPDEDFFSLIMKVQSGRMEDQRASIPFRNANNNNNSRSNNNGSAGGAGK

Key:
[1] = molecular target: T1, YFP-ΔGL1,2 Pins-CFP fusion protein …; assay: FRET or BRET
[2] = molecular target: tetramethylrhodamine labeled Mud peptide (TMR-Mud) (Drosophila); assay: fluorescence polarisation

Binder | Kd [1] | Pins activation (%) [2]
B1 | 3.4 ± 0.3 µM | –
B2 | – | 85%
